{"source": "paper PMC549393", "binders": {"B1": {"name": "U6 (SNR6) TATA-DNA, 30 bp (dsDNA)", "DNA 1": "TTTTCGGCTACTATAAATAAATGTTTTTTT", "DNA 2": "AAAAAAACATTTATTTATAGTAGCCGAAAA"}}, "target": "T1, TBP (TATA-binding protein);Brf1;Bdp1 (yeast?;yeast?;yeast?, UniProt P13393;P29056;P46678 1-240;1-596;1-594, ||)", "T1 sequence 1": "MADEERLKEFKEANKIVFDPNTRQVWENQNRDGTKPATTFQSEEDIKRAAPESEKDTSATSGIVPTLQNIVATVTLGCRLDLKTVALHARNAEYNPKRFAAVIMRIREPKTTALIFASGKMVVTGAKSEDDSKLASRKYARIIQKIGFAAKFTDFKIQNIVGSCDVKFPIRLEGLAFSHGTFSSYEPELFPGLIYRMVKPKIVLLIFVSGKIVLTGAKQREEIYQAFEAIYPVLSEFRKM", "T1 sequence 2": "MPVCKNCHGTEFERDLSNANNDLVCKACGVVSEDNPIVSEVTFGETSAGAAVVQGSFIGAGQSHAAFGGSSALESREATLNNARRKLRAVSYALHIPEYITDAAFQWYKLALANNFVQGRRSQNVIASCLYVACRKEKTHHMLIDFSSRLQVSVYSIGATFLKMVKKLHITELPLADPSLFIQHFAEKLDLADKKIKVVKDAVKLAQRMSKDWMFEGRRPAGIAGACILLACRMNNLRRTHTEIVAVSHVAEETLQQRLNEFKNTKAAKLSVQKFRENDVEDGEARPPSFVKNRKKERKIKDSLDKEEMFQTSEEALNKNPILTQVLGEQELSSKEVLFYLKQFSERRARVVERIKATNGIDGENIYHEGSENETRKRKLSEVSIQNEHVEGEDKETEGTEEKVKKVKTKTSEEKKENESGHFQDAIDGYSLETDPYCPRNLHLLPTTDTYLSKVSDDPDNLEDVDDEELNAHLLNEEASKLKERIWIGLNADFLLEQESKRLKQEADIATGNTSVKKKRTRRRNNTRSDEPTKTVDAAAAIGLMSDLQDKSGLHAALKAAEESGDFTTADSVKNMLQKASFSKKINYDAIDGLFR", "T1 sequence 3": "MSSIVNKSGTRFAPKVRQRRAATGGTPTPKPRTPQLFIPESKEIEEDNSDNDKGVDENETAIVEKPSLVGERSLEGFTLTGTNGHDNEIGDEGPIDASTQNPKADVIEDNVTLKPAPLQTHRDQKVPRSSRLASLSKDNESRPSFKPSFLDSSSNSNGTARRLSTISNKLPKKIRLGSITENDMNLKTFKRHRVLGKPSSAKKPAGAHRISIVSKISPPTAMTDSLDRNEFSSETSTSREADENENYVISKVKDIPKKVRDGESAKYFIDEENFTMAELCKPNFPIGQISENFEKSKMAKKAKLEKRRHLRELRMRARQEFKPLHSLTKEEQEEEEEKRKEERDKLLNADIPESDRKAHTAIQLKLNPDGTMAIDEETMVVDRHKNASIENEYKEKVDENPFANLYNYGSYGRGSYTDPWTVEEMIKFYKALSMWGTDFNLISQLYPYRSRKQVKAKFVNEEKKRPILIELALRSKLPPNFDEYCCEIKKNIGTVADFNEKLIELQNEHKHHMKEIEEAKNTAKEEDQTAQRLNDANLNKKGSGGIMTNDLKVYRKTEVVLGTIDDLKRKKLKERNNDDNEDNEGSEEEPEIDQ", "assay": "EMSA", "data": [{"binder": "B1", "values": [{"measurement": "binding result", "value": "binds"}]}]}
